Laboratory results as given in US20040204348A1 (ANGSTROM PHARMACEUTICALS, published 2004).
Bridges are numbered along the chain shown (N, C = ends). L10 (R1 : -NH-m-phenylene-NH2) = linker L10: -CO-CH2-NH-CO-CH2-CH2-CH(CO-NH-CH2-COR1)-NH- with R1 = -NH-m-phenylene-NH2; L10 (R1 : -NH-o-phenylene-NH2) = linker L10: -CO-CH2-NH-CO-CH2-CH2-CH(CO-NH-CH2-COR1)-NH- with R1 = -NH-o-phenylene-NH2; L10 (R1 : -NH-p-phenylene-NH2) = linker L10: -CO-CH2-NH-CO-CH2-CH2-CH(CO-NH-CH2-COR1)-NH- with R1 = -NH-p-phenylene-NH2; L15 (R1 : phenyl) = linker L15: -CO-CH2-NH-CO-CH2-CH2-CH(CO-NH-CH2-CO-NH-R1)-NH- with R1 = phenyl (anilide)

B1: receptor targeting ligand-p-phenylenediamine derivative (RTLPPD) (peptide)
peptide: VSNKYFSNIHW
modifications: linker N-C via L10 (R1 : -NH-p-phenylene-NH2); also: cyclised by linker L10 between X1 N and X11 carbonyl
B2: Å36 (peptide)
peptide: VSNKYFSNIHW
modifications: linker N-C via L15 (R1 : phenyl); also: cyclised by linker L15 between X1 N and X11 carbonyl
notes: also called A36; cyclic peptide Å36
B3: RTLMPD (peptide)
peptide: VSNKYFSNIHW
modifications: linker N-C via L10 (R1 : -NH-m-phenylene-NH2); also: cyclised by linker L10 between X1 N and X11 carbonyl
notes: also called isomer of RTLPPD incorporating m-phenylenediamine (MPD)
B4: RTLOPD (peptide)
peptide: VSNKYFSNIHW
modifications: linker N-C via L10 (R1 : -NH-o-phenylene-NH2); also: cyclised by linker L10 between X1 N and X11 carbonyl
notes: also called isomer of RTLPPD incorporating o-phenylenediamine (OPD)
B5: biotin-modified-RTLPPD (peptide)
peptide: VSNKYFSNIHW
modifications: linker N-C via L10 (R1 : -NH-p-phenylene-NH2); also: biotin-X (7-atom spacer) label, site not given here
notes: RTLPPD reacted with Biotin-X-sulfoNHS
B6: Oregon Green-modified-RTLPPD (peptide)
peptide: VSNKYFSNIHW
modifications: linker N-C via L10 (R1 : -NH-p-phenylene-NH2); also: Oregon Green (5/6-isomer mix) label, site not certain (intended on phenylenediamine amine)
notes: RTLPPD reacted with Oregon Green isothiocyanate; also called Oregon Green-labeled-RTLPPD

What was measured:
[1] = target: T1, uPAR expressed on cells (RKO human colon carcinoma cells, HeLa cells, stimulated HUVEC) (human, UniProt Q03405 23-305); assay: competition with 0.2 nM [125I]DFP-uPA on RKO cells, 4 C
T1 construct: whole, on cells; GPI-anchored receptor on whole cells
Method: The compounds of the invention were tested for their binding to uPAR by measuring their ability to inhibit the binding of [¹²⁵I]DFP-uPA (catalytically inactivated high molecular weight uPA) to uPAR expressed by RKO (human colon carcinoma) cells. Cells (about 5×10⁴/well) were plated (in MEM with Earle's salts/10% FBS+antibiotics) in 24-well plates, then incubated in a humid 5% CO₂ atmosphere until the cells reach 70% confluence. Catalytically inactivated high molecular weight uPA (DFP-uPA) was radioiodinated using Iodo-gen® (Pierce) to a specific activity of about 250,000 cpm/mg. The cell-containing plates were then chilled on ice and the cells were washed twice (5 minutes each) with cold PBS/0.05% Tween-80. Test compounds were serially diluted in cold PBS/0.1% BSA/0.01% Tween-80 and added to each well to a final volume of 0.3 mL 10 minutes prior to the addition of the [¹²⁵I]DFP-uPA. Each well then receives 9500 cpm of [¹²⁵I]DFP-uPA at a final concentration of 0.2 nM. The plates were incubated at 4° C. for 2 hrs, after which time the cells were washed 3× (5 minutes each) with cold PBS/0.05% Tween-80. NaOH (1N; 0.5 mL) was added to each well to lyse the cells, the contents of each well were aspirated and the total counts in each well determined using a gamma counter. Each compound was tested in triplicate and the results are expressed as a percentage of the total radioactivity measured in wells containing [¹²⁵I]DFP-uPA alone, which is taken to represent maximum (100%) binding.
RTLPPD inhibited the binding of [¹²⁵I]DFP-uPA with an IC₅₀ of approximately 5 nM (FIG. 3). Modification of RTLPPD with Oregon Green shifted the IC₅₀ to approximately 800 nM (FIG. 3) and modification with biotin shifted the IC₅₀ to approximately 1.1 μM (FIG. 4). RTLMPD and RTLOPD inhibited the binding of [¹²⁵I]DFP-uPA to RKO cells with an IC₅₀ of approximately 50 and 100 nM , respectively (FIG. 3).

[2] = target: T1, uPAR expressed on cells (RKO human …); assay: whole-cell competition with [125I]DFP-uPA on HeLa cells, as the method is described; competition for binding to HeLa cells, not BIAcor
Method: HeLa cells (about 5×10⁴/well) were plated in medium MEM with Earle's salts/10% FBS+antibiotics) in 24-well plates, then incubated in a humid 5% CO₂ atmosphere until the cells reached 70% confluence. Catalytically inactivated high molecular weight uPA (DFP-uPA) labeled with radioactive ¹²⁵I (specific activity 250,000 cpm/mg) served as the uPAR label. Plates in which the cells were incubated were chilled on ice and the cells were washed twice (5 minutes each) with cold PBS/0.05% Tween-80. DFP-UPA and Å36 were serially diluted in cold PBS/0.1% BSA/0.01% Tween-80 and added to each well to a final volume of 0.3 mL 10 minutes prior to the addition of [¹²⁵I]DFP-UPA. Each well then received 9500 cpm of [¹²⁵I]DFP-UPA at a final concentration of 0.2 nM). The plates were incubated at 4° C. for 2 hrs, after which the cells are washed 3× (5 minutes each) with cold PBS/0.05% Tween-80. Cells were lysed by addition of NaOH (1N) 0.5 mL/well for 5 minutes at room temperature or until all the cells in each well were lysed by microscopic examination. The contents of each well were aspirated, and the total counts in each well were determined using a gamma counter. Each compound was tested in triplicate and the results were expressed as a percentage of the total radioactivity measured in wells containing [¹²⁵I]DFP-uPA alone, which is taken to represent maximum (100%) binding.

T1 sequence (Q03405 23-305): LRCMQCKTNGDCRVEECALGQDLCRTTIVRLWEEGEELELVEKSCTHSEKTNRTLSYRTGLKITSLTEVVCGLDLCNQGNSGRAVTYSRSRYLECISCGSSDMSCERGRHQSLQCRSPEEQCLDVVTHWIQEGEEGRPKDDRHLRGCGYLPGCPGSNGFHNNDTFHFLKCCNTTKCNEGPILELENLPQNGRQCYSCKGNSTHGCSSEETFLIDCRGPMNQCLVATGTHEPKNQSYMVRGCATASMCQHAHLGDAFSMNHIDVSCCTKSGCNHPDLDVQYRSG

| Binder | IC50 [1] [nM] | Kd [2] [nM] |
| --- | --- | --- |
| B1 | ~5 | – |
| B2 | – | 30 |
| B3 | ~50 | – |
| B4 | ~100 | – |
| B5 | ~1100 | – |
| B6 | ~800 | – |
